The source of these data is US20260132200A1 (Regeneron, published 2026).

Positions count from the first letter of the chain named. In names and notes the source's numbering stands.

For assay [1], the target named is T1, human CD20 expressed on Raji cells (CD3-, CD20+ human B-cell line) (human, UniProt P11836 1-297).
T1 sequence: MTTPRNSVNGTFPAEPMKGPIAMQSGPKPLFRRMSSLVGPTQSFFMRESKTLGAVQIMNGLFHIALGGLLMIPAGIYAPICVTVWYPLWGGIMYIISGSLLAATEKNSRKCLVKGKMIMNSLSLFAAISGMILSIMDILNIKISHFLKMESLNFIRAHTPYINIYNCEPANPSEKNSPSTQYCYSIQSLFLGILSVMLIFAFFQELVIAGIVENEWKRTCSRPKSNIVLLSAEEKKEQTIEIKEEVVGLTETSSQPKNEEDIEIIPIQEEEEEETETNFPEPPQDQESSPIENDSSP
Put plainly: cell-based or functional assay.

Assay [2] deals with T2, cynomolgus monkey CD3 on monkey T cells (CD2+CD4+ cells of cynomolgus PBMCs) (cynomolgus monkey, UniProt Q95LI5 22-198).
T2 construct: whole, on cells; also called mkT cells; monkey PBMCs
T2 sequence (Q95LI5 22-198): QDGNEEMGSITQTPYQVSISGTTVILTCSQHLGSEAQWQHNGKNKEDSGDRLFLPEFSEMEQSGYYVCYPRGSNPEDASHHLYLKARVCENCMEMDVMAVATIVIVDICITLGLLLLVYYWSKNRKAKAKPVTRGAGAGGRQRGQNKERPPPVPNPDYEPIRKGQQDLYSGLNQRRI
As to the kind of experiment: FACS on cynomolgus PBMCs, CD2+CD4+ T cells. As to the method:
(§1) CD20×CD3 bispecific antibodies and Control constructs, as set forth in Example 1, were tested via FACS for their ability to bind to Jurkat (CD3+, CD20− human T-cell line), Raji (CD3−, CD20+ Human B-cell line), or cynomolgus PBMCs (“mkT cells”).
(§2) FACS data was acquired using the following protocol: Cells at 2×10⁵ per well were incubated with serially diluted antibodies for 30 min on ice. Post incubation, cells were washed and appropriate secondary (Jurkat, RAJI cells) or cocktail of secondary antibodies (for cyno PBMC) was added and incubated for an additional 30 minutes. After incubation, cells were washed, re-suspended in cold PBS containing 1% BSA and analyzed by flow cytometry on a BD FACS Canto II. Jurkat and Raji cells were gated by side and forward scatters, while cynomolgus T cells were also gated in a CD2+CD4+ population. The EC₅₀s for cell binding titration were determined using Prism software with values calculated using a 4-parameter non-linear regression analysis.

The target in assay [3] is T3, human CD3 expressed on cells (Jurkat, a CD3+ human T-cell line; human T cells) (human, UniProt P07766 23-126; P04234 22-100).
T3 construct: also called FACS JURKAT
T3 chain 1: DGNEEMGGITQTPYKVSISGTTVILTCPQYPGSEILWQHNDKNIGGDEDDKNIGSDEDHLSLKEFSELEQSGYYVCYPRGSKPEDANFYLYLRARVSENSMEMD
T3 chain 2: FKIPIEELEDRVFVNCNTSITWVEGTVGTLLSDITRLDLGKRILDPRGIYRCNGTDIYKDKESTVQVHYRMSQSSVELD
As to the kind of experiment: FACS on Jurkat cells. As to the method:
as §1, §2

The target of assay [4] is T3, human CD3 expressed on cells (Jurkat, a …). As to the kind of experiment: cell-based or functional assay.
Assay [5] shares this target. As to the kind of experiment: FACS on Jurkat cells. As to the method:
Binding was assessed using Jurkat cells (a CD3+ human T-cell line), while proliferation of Peripheral Blood Mononuclear Cells (PBMC) was assessed using ATP catalyzed quantification (CellTiter Glo®).
FACS data was acquired using the following protocol: Cells at 2×10⁵ per well were incubated with serially diluted antibodies for 30 min on ice. Post incubation, cells were washed and secondary antibody was added and incubated for an additional 30 minutes. After incubation, cells were washed, re-suspended in cold PBS containing 1% BSA and analyzed by flow cytometry with viable Jurkat cells gated by side and forward scatters. The EC₅₀s for cell binding titration were determined using Prism software with values calculated using a 4-parameter non-linear regression analysis.

The target of assay [6] is T4, Soluble heterodimeric CD3 protein (hCD3-epsilon/hCD3-delta) with either a human Fc tag (hFcΔAdp/hFc) or a … (human, UniProt P07766 23-126; P04234 22-100).
T4 construct: Soluble construct; not shown: Fc tag: human (hFcΔAdp/hFc)
T4 chain 1: T3 chain 1
T4 chain 2: T3 chain 2
Put plainly: SPR Biacore 25C antibody-capture. As to the method: (§3) Measurements were conducted on a T200 Biacore instrument.
Heterodimeric CD3 protein was purified using the method described in Davis et al. (US2010/0331527).
(§4) Kinetic association (kₐ) and dissociation (kd) rate constants were determined by processing and fitting the data to a 1:1 binding model using Scrubber 2.0 curve fitting software. Binding dissociation equilibrium constants (KD) and dissociative half-lives (t_{1/2}) were calculated from the kinetic rate constants as: KD (M)=kd/kₐ; and t_{1/2} (min) (ln 2/(60*kd). NT=not tested; NB=no binding observed.
A general note: In SPR one partner is held on a chip, and binding of the other changes the refractive index at the surface.

The target in assay [7] is T4, Soluble heterodimeric CD3 protein …. As to the kind of experiment: SPR Biacore 25C antigen-capture. As to the method: as §3
In the antigen-capture format, heterodimeric CD3 protein was captured using a rabbit anti-mouse Fc or mouse anti-human Fc and the respective antibodies were injected over the captured antigen.
as §4

B1: Control IV: monoclonal anti-CD20 antibody 3B9-10 (antibody, V domains shown)
VH: EVQLVESGGGLVQPGRSLRLSCVASGFTFNDYAMHWVRQAPGKGLEWVSVISWNSDSIGYADSVKGRFTISRDNAKNSLYLQMHSLRAEDTALYYCAKDNHYGSGSYYYYQYGMDVWGQGTTVTVSS
VL: EIVMTQSPATLSVSPGERATLSCRASQSVSSNLAWYQQKPGQAPRLLIYGTSTRATGIPARFSGSGSGTEFTLTISSLQSEDFAVYYCQQYNNWPLTFGGGTKVEIK
notes: also called Control IV (anti-CD20)
For B1, in assay [1], the “CDC EC50, Raji” value was 0.247 nM; the “CDC EC50, Raji SCID1” value was found to be 51.9 nM; the “CDC EC50, Raji SCID2” value came to 0.229 nM; the “CDC EC50, Raji SCID3” value turned out to be 5.71 nM. In addition, the “CDC EC50, Raji SCID4” value in assay [1] was 1.14 nM. Moreover, the binding result in assay [2] is “no binding”. The binding result in assay [3] is given as “no binding”.

B2: H2M2709N (antibody, mouse IgG2, V domains shown)
VH: QVQLVESGGGVVQPGRSLRLSCAASGFTFRSFGMHWVRQAPGRGLEWVAMIYFDGKNKYYADSVRGRFTISRDNSKNTLYLEMSSLRAEDTAVYFCARGPGYNWLDPWGQGTLVTVSS
VL: B1 VL with A19V, V29I, S31R, T51A, I58V, Y86F, Y87H, W94R, K103E
notes: mouse IgG2 Fc (H2M), human variable regions
Broadly, the EC50 is the concentration that produces a half-maximal response. As for B2, the “U937 Cytotoxicity Human T-cells [M] (EC50)” value in assay [4] turned out to be 3.47e-12 M. A half-maximal response in assay [5] (EC50) required 0.711 nM.

B3: H2M2776N (antibody, V domains shown)
VH: B2 VH
VL: B1 VL with A19V, T20I, V29I, S31R, T51A, S52T, I58V, Y86F, W94R, K103E
notes: mouse IgG2 Fc, human variable regions
A word on the Kd: it is the constant that tells how readily two partners part at equilibrium. Broadly, the koff is the rate constant with which the complex falls apart. What is called kon is the second-order rate constant of association. Turning to B3, in assay [6], the Kd is 10.2 nM, the koff came out at 0.000639 s⁻¹ and the kon came to 62900 M⁻¹ s⁻¹. Besides, in assay [7], binding was put at a Kd of 0.14 nM, the “T½” value was determined as 52 min, the koff turned out to be 0.000222 s⁻¹ and the kon was determined as 1.58e+06 M⁻¹ s⁻¹.
